Test results taken from patent US11739161B2, “Methods for treating and diagnosing prostate cancer” (Tufts Medical Center, Inc., priority 2017, dated 2023).

Legend:
DU145 cells [1] = assay: Cell cycle analysis by flow cytometry; format: cell-based, human; conditions: exogenous RNASE4 1 μg/ml
Procedure: FIGS. 10A-E. RNASE4 induces prostate cancer cell proliferation and phosphorylation of AKT and S6. (A and B) Exogenous RNASE4 (1 μg/ml) stimulates cell proliferation (A) and cell cycle progression (B) of DU145 cells cultured in the presence of 2% FBS. Cell numbers were determined by MTT assay. […] (C) Time course of AKT and S6 phosphorylation of serum-starved DU145 cells by RNASE4 (1 μg/ml). Left panels, immunoblots; right panels, quantification of p-AKT and p-S6 normalized to total AKT and S6 by Image J analysis. […] Cells were pre-incubated with the inhibitors at the indicated concentrations for 1 hour prior to be stimulated by 1 μg/ml of RNASE4 for 5 minutes. Top panels, immunoblots; bottom panels, Image J quantification of p-AKT and p-S6 normalized to total AKT and S6. (E) Effect of AKT inhibitor MK-2206, PI3K inhibitors Wortmannin and LY294002, and mTOR inhibitor Rapamycin on RNASE4-induced cell proliferation. DU145 cells were serum-starved overnight, incubated with the inhibitors for 1 hour, and then treated with RNASE4 (1 μg/ml) for three days. Cell numbers were determined by MTT assay. Data shown are from a representative experiments in triplicates of 3 independent repeats. […]
FIGS. 17A-C. […] Cell numbers were determined by a Coulter counter. […] Cell cycle status was determined by flow cytometry. […] Bottom panels, tube length and number of loops counted from 5 randomly selected areas. […]

DU145 cells [2] = assay: RNASE4-induced cell proliferation (MTT assay); format: cell-based, human; conditions: exogenous RNASE4 1 μg/ml, DU145, 2% FBS
Procedure: FIGS. 10A-E. RNASE4 induces prostate cancer cell proliferation and phosphorylation of AKT and S6. (A and B) Exogenous RNASE4 (1 μg/ml) stimulates cell proliferation (A) and cell cycle progression (B) of DU145 cells cultured in the presence of 2% FBS. Cell numbers were determined by MTT assay. Cell cycle status was determined by flow cytometry after 24 hour incubation with RNASE4. (C) Time course of AKT and S6 phosphorylation of serum-starved DU145 cells by RNASE4 (1 μg/ml). Left panels, immunoblots; right panels, quantification of p-AKT and p-S6 normalized to total AKT and S6 by Image J analysis. […] Cells were pre-incubated with the inhibitors at the indicated concentrations for 1 hour prior to be stimulated by 1 μg/ml of RNASE4 for 5 minutes. Top panels, immunoblots; bottom panels, Image J quantification of p-AKT and p-S6 normalized to total AKT and S6. (E) Effect of AKT inhibitor MK-2206, PI3K inhibitors Wortmannin and LY294002, and mTOR inhibitor Rapamycin on RNASE4-induced cell proliferation. DU145 cells were serum-starved overnight, incubated with the inhibitors for 1 hour, and then treated with RNASE4 (1 μg/ml) for three days. Cell numbers were determined by MTT assay. Data shown are from a representative experiments in triplicates of 3 independent repeats. Error bars indicate SEM. **P≤0.01, by unpaired two-tailed Student's t test.
FIGS. 12A-F. RNASE4 induces AXL phosphorylation. (A) Human phospho-receptor tyrosine kinase (RTK) antibody array analysis. Serum-starved DU145 cells were treated with or without 1 μg/ml of RNASE4 for 5 minutes. […] Cell lysates were analyzed by antibodies against total AXL and phospho-AXL, with β-actin as the loading control. Left panels, immunoblots; right panel, Image J quantification of p-AXL normalized to total AXL. […] Left panels, immunoblots; right panel, quantification. […] Cell numbers were determined by MTT assay. […] Cell lysates were analyzed for AKT and P6 phosphorylation by immunoblotting. Top panels, immunoblots; bottom panels, quantification of phospho-AKT and phospho-S6 by Image J analyses normalized to total AKT and P6, respectively. […]

B1: RNASE4: recombinant human RNASE4 protein from pET11 expression in E. coli, purified by reversed-phase HPLC; added exogenously (protein, UniProt P34096 29-147, looked up)
Ribonuclease 4: QDGMYQRFLRQHVHPEETGGSDRYCNLMMQRRKMTLYHCKRFNTFIHEDIWNIRSICSTTNIQCKNGKMNCHEGVVKVTDCRDTGSSRAPNCRYRAIASTRRVVIACEGNPQVPVHFDG
B1 was tested. Which G0/G1 population (DU145 cells [1]) did it give?
Its G0/G1 population is “decreased”.

And the G2/S/M phase population (DU145 cells [1])?
The G2/S/M phase population was “increased”.

What about the cell proliferation (DU145 cells [2]) of the same molecule?
Its cell proliferation is “stimulates”.
